Data: US20180155451A1 (published 2018)

B1: GpH7-B3 variant K326_07I/GpL16-k0 (antibody, human IgG1, kappa)
heavy: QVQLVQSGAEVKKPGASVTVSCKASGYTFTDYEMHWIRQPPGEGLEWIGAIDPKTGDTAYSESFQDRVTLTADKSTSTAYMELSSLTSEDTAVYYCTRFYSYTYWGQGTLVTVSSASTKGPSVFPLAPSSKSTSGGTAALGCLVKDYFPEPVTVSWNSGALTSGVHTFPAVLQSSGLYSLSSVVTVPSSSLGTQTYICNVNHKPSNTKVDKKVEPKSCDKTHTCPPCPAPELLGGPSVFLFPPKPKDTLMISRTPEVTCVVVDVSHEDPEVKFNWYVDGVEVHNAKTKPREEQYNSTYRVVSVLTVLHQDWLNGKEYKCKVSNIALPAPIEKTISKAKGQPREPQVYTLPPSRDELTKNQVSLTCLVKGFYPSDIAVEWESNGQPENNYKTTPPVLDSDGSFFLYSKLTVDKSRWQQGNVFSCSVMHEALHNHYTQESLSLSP
light: DIVMTQSPLSLPVTPGEPASISCQASESLVHSNRNTYLHWYLQKPGQSPQLLIYKVSNRFSGVPDRFSGSGSGTDFTLKISRVEAEDVGVYYCSQNTHVPPTFGQGTKVEIERTVAAPSVFIFPPSDEQLKSGTASVVCLLNNFYPREAKVQWKVDNALQSGNSQESVTEQDSKDSTYSLSSTLTLSKADYEKHKVYACEVTHQGLSSPVTKSFNRGEC
notes: homodimerized; mutation in both H chains; also called Ho Ab
B2: GpH7-A5/GpH7-B3 variant S337_02A/GpL16-k0 (antibody, human IgG1, kappa)
heavy 1: not shown
heavy 2: not shown
light: B1 light
notes: heterodimerized; mutation in one H chain; also called He Ab
B3: GpH7-A5/GpH7-B3 variant I332_06M/GpL16-k0 (antibody, human IgG1, kappa)
heavy 1: not shown
heavy 2: not shown
light: B1 light
notes: as for B2
B4: GpH7-A5/GpH7-B3 variant A327_09D/GpL16-k0 (antibody, human IgG1, kappa)
heavy 1: not shown
heavy 2: not shown
light: B1 light
notes: as for B2
B5: GpH7-B3 variant S239_08L/GpL16-k0 (antibody, human IgG1, kappa)
heavy: not shown
light: B1 light
notes: as for B1
B6: GpH7-B3 variant S239_10E/GpL16-k0 (antibody, human IgG1, kappa)
heavy: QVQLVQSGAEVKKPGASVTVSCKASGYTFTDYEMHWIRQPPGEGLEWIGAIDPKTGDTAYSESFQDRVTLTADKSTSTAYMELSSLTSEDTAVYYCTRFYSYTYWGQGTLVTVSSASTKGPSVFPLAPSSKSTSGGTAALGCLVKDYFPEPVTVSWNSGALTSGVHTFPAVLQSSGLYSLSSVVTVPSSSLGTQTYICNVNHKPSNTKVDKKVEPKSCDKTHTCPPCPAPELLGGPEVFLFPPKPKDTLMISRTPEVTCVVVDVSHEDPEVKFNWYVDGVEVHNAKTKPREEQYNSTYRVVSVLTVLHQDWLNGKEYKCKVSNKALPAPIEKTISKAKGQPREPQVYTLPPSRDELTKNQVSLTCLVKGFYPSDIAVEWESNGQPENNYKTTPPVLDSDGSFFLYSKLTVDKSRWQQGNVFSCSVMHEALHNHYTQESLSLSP
light: B1 light
notes: as for B1
B7: GpH7-B3 variant T335_13S/GpL16-k0 (antibody, human IgG1, kappa)
heavy: not shown
light: B1 light
notes: as for B1
B8: GpH7-B3 variant S337_07I/GpL16-k0 (antibody, human IgG1, kappa)
heavy: not shown
light: B1 light
notes: as for B1
B9: GpH7-B3 variant S337_18N/GpL16-k0 (antibody, human IgG1, kappa)
heavy: not shown
light: B1 light
notes: as for B1
B10: GpH7-B3 variant T335_07I/GpL16-k0 (antibody, human IgG1, kappa)
heavy: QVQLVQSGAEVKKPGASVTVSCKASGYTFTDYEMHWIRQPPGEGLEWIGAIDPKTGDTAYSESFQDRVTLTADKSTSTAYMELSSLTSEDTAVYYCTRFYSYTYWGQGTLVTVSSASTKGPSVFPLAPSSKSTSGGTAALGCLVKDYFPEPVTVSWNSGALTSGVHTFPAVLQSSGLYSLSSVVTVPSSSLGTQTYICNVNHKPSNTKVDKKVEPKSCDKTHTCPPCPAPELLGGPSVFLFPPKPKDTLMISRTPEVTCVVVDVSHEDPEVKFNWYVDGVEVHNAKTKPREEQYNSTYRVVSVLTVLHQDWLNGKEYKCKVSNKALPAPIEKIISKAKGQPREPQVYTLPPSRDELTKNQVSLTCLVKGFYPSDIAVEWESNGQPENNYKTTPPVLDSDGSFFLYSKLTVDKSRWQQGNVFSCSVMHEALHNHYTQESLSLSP
light: B1 light
notes: as for B1
B11: GpH7-A5/GpH7-B3 variant I336_08L/GpL16-k0 (antibody, human IgG1, kappa)
heavy 1: not shown
heavy 2: not shown
light: B1 light
notes: as for B2
B12: GpH7-B3 variant P271_08L/GpL16-k0 (antibody, human IgG1, kappa)
heavy: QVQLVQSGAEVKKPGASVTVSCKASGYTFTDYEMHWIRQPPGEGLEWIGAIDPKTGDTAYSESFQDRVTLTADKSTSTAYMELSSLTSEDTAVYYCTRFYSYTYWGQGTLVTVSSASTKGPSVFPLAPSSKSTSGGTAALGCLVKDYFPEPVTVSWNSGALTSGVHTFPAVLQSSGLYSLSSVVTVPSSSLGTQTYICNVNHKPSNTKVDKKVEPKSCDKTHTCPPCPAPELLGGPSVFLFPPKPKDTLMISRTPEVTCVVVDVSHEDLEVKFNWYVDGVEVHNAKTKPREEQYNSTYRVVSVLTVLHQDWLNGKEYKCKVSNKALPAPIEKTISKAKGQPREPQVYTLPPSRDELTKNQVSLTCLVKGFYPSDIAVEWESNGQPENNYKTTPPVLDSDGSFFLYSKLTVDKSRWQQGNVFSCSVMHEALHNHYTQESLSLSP
light: B1 light
notes: as for B1
B13: GpH7-B3 variant S298_08L/GpL16-k0 (antibody, human IgG1, kappa)
heavy: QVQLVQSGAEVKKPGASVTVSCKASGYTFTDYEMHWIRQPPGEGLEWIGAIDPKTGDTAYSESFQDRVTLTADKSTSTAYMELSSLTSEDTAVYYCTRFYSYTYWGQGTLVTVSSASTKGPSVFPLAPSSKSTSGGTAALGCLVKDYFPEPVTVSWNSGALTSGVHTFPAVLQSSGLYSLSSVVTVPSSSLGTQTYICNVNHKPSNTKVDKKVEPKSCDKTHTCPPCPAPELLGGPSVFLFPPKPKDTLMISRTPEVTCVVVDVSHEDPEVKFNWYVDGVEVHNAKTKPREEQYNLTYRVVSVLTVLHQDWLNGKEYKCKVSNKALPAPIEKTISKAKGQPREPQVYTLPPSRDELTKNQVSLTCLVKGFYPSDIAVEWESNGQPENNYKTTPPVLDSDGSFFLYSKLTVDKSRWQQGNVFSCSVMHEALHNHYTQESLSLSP
light: B1 light
notes: as for B1
B14: GpH7-B3 variant S337_15Y/GpL16-k0 (antibody, human IgG1, kappa)
heavy: not shown
light: B1 light
notes: as for B1
B15: GpH7-B3 variant S337_03V/GpL16-k0 (antibody, human IgG1, kappa)
heavy: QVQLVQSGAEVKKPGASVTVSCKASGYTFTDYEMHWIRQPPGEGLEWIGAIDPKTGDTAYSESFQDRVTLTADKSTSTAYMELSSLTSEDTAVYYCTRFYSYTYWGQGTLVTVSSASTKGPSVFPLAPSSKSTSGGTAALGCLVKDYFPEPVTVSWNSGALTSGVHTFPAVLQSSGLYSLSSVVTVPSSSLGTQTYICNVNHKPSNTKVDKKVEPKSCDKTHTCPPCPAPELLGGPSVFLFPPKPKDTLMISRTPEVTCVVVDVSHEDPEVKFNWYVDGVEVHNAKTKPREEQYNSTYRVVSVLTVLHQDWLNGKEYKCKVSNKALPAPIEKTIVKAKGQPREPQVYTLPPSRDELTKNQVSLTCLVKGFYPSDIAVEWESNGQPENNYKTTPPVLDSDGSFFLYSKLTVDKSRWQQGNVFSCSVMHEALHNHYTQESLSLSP
light: B1 light
notes: as for B1
B16: GpH7-B3 variant S239_18N/GpL16-k0 (antibody, human IgG1, kappa)
heavy: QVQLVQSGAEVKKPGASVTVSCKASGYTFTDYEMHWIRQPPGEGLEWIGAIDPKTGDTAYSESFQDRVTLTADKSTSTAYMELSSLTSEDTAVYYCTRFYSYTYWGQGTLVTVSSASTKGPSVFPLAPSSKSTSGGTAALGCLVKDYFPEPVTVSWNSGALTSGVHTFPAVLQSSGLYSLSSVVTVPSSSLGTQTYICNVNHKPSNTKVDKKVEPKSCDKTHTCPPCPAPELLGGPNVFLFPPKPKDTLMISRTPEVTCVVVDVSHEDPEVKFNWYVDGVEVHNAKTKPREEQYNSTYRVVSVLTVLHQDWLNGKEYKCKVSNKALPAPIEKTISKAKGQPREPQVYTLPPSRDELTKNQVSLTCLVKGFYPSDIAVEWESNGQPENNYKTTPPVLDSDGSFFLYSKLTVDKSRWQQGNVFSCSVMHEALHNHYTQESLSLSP
light: B1 light
notes: as for B1
B17: GpH7-B3 variant P331_02A/GpL16-k0 (antibody, human IgG1, kappa)
heavy: not shown
light: B1 light
notes: as for B1
B18: GpH7-B3 variant S267_06M/GpL16-k0 (antibody, human IgG1, kappa)
heavy: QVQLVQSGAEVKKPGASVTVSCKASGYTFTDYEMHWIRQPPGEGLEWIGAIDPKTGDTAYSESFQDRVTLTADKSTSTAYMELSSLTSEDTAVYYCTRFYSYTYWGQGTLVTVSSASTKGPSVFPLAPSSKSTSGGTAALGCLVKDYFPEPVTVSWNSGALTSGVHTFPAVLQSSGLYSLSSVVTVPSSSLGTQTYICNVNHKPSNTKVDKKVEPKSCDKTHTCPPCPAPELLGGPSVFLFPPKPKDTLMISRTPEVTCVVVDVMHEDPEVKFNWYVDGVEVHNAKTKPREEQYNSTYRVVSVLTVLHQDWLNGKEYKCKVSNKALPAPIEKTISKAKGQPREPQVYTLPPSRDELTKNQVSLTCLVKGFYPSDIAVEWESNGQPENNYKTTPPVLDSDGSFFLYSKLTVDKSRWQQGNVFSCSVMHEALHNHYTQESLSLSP
light: B1 light
notes: as for B1
B19: GpH7-B3 variant P238_03V/GpL16-k0 (antibody, human IgG1, kappa)
heavy: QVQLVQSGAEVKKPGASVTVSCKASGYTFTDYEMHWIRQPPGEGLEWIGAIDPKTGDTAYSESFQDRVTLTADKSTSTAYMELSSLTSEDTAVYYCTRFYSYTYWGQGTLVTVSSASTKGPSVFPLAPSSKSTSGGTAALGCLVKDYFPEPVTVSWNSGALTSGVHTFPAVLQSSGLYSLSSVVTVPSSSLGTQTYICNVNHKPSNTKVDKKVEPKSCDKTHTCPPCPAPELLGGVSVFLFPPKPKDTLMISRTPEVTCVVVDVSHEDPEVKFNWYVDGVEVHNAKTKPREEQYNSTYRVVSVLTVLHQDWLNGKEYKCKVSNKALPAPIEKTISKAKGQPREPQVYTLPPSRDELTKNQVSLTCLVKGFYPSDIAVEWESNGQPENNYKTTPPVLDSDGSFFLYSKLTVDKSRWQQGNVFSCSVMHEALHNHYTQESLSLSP
light: B1 light
notes: as for B1
B20: GpH7-B3 variant P331_15Y/GpL16-k0 (antibody, human IgG1, kappa)
heavy: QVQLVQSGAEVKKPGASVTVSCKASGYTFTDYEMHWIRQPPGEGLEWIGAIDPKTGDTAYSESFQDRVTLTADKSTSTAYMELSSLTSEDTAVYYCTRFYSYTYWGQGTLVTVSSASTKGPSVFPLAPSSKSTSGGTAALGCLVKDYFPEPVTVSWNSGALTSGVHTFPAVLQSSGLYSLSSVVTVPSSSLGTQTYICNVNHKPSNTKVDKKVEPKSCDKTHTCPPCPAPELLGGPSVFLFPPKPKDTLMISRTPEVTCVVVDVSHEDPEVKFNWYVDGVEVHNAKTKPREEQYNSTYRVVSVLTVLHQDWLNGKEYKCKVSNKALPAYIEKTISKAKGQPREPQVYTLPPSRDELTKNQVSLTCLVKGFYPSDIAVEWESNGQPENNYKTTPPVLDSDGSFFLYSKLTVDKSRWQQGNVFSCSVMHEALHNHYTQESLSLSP
light: B1 light
notes: as for B1
B21: GpH7-B3 variant T335_05P/GpL16-k0 (antibody, human IgG1, kappa)
heavy: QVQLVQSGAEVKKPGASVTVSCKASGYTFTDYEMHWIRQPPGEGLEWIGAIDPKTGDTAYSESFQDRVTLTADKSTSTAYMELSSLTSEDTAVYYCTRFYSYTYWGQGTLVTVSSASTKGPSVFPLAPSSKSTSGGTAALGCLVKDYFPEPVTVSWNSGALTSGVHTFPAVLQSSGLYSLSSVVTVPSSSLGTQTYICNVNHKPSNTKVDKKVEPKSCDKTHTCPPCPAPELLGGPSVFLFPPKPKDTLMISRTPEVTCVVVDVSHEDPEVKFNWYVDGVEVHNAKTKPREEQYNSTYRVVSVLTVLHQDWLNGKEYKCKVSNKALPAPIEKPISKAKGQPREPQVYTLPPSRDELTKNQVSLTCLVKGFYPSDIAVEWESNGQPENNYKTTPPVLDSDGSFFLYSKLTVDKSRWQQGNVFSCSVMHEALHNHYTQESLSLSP
light: B1 light
notes: as for B1
B22: GpH7-A5/GpH7-B3 variant A327_10E/GpL16-k0 (antibody, human IgG1, kappa)
heavy 1: not shown
heavy 2: not shown
light: B1 light
notes: as for B2
B23: GpH7-A5/GpH7-B3 variant K326_03V/GpL16-k0 (antibody, human IgG1, kappa)
heavy 1: not shown
heavy 2: not shown
light: B1 light
notes: as for B2
B24: GpH7-B3 variant K334_02A/GpL16-k0 (antibody, human IgG1, kappa)
heavy: not shown
light: B1 light
notes: as for B1
B25: GpH7-B3 variant K334_04F/GpL16-k0 (antibody, human IgG1, kappa)
heavy: not shown
light: B1 light
notes: as for B1
B26: GpH7-B3 variant P238_04F/GpL16-k0 (antibody, human IgG1, kappa)
heavy: not shown
light: B1 light
notes: as for B1
B27: GpH7-B3 variant L328_14T/GpL16-k0 (antibody, human IgG1, kappa)
heavy: not shown
light: B1 light
notes: as for B1
B28: GpH7-B3 variant T335_10E/GpL16-k0 (antibody, human IgG1, kappa)
heavy: not shown
light: B1 light
notes: as for B1
B29: GpH7-A5/GpH7-B3 variant K326_04F/GpL16-k0 (antibody, human IgG1, kappa)
heavy 1: not shown
heavy 2: not shown
light: B1 light
notes: as for B2

Target: T1, FcγRIIa R (extracellular domain with a His tag at the C terminus) (human, UniProt P12318 34-217)
T1 construct: extracellular domain; expressed in FreeStyle293 cells; also called FcgRIIa R; FcγRIIa type R; not shown: His tag at the C terminus
T1 sequence (looked up): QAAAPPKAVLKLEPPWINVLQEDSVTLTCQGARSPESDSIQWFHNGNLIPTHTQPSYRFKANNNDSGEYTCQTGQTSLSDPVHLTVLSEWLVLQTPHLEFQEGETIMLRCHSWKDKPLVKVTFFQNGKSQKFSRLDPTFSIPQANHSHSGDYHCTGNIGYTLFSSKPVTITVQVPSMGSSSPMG
Test: SPR Biacore, relative binding

Binder	Ho/Con_2aR	He/Con_2aR
B1	133 % of GpH7-B3/GpL16-k0 (=100)	
B2		105 % of GpH7-A5/GpH7-B3/GpL16-k0 (=100)
B3		109 % of GpH7-A5/GpH7-B3/GpL16-k0 (=100)
B4		124 % of GpH7-A5/GpH7-B3/GpL16-k0 (=100)
B5	106 % of GpH7-B3/GpL16-k0 (=100)	
B6	122 % of GpH7-B3/GpL16-k0 (=100)	
B7	102 % of GpH7-B3/GpL16-k0 (=100)	
B8	103 % of GpH7-B3/GpL16-k0 (=100)	
B9	103 % of GpH7-B3/GpL16-k0 (=100)	
B10	107 % of GpH7-B3/GpL16-k0 (=100)	
B11		110 % of GpH7-A5/GpH7-B3/GpL16-k0 (=100)
B12	102 % of GpH7-B3/GpL16-k0 (=100)	
B13	101 % of GpH7-B3/GpL16-k0 (=100)	
B14	100 % of GpH7-B3/GpL16-k0 (=100)	
B15	102 % of GpH7-B3/GpL16-k0 (=100)	
B16	103 % of GpH7-B3/GpL16-k0 (=100)	
B17	102 % of GpH7-B3/GpL16-k0 (=100)	
B18	102 % of GpH7-B3/GpL16-k0 (=100)	
B19	116 % of GpH7-B3/GpL16-k0 (=100)	
B20	105 % of GpH7-B3/GpL16-k0 (=100)	
B21	104 % of GpH7-B3/GpL16-k0 (=100)	
B22		110 % of GpH7-A5/GpH7-B3/GpL16-k0 (=100)
B23		141 % of GpH7-A5/GpH7-B3/GpL16-k0 (=100)
B24	100 % of GpH7-B3/GpL16-k0 (=100)	
B25	110 % of GpH7-B3/GpL16-k0 (=100)	
B26	146 % of GpH7-B3/GpL16-k0 (=100)	
B27	118 % of GpH7-B3/GpL16-k0 (=100)	
B28	109 % of GpH7-B3/GpL16-k0 (=100)	
B29		135 % of GpH7-A5/GpH7-B3/GpL16-k0 (=100)
